Laboratory results reported in PMC11151819.

Biological target: BIR3 domain of XIAP (human) (UniProt P98170)
Experiment: SEC

stoichiometry N: 2
Substance: BIR3 domain of XIAP (from UniProt P98170 241-356) (domain or fragment)
